Data: paper PMC9780223, “Structural insights into the covalent regulation of PAPP-A activity by proMBP and STC2” (Cell Discovery, 2022)
Blank lines part the entries; values can stand above or below the binder they belong to.

B1: pregnancy-associated plasma protein A (PAPP-A), endogenous, from pregnant human plasma (enzyme, human (endogenous in pregnant plasma), UniProt Q13219 82-1627, looked up)
chain: EARGATEEPSPPSRALYFSGRGEQLRLRADLELPRDAFTLQVWLRAEGGQRSPAVITGLYDKCSYISRDRGWVVGIHTISDQDNKDPRYFFSLKTDRARQVTTINAHRSYLPGQWVYLAATYDGQFMKLYVNGAQVATSGEQVGGIFSPLTQKCKVLMLGGSALNHNYRGYIEHFSLWKVARTQREILSDMETHGAHTALPQLLLQENWDNVKHAWSPMKDGSSPKVEFSNAHGFLLDTSLEPPLCGQTLCDNTEVIASYNQLSSFRQPKVVRYRVVNLYEDDHKNPTVTREQVDFQHHQLAEAFKQYNISWELDVLEVSNSSLRRRLILANCDISKIGDENCDPECNHTLTGHDGGDCRHLRHPAFVKKQHNGVCDMDCNYERFNFDGGECCDPEITNVTQTCFDPDSPHRAYLDVNELKNILKLDGSTHLNIFFAKSSEEELAGVATWPWDKEALMHLGGIVLNPSFYGMPGHTHTMIHEIGHSLGLYHVFRGISEIQSCSDPCMETEPSFETGDLCNDTNPAPKHKSCGDPGPGNDTCGFHSFFNTPYNNFMSYADDDCTDSFTPNQVARMHCYLDLVYQGWQPSRKPAPVALAPQVLGHTTDSVTLEWFPPIDGHFFERELGSACHLCLEGRILVQYASNASSPMPCSPSGHWSPREAEGHPDVEQPCKSSVRTWSPNSAVNPHTVPPACPEPQGCYLELEFLYPLVPESLTIWVTFVSTDWDSSGAVNDIKLLAVSGKNISLGPQNVFCDVPLTIRLWDVGEEVYGIQIYTLDEHLEIDAAMLTSTADTPLCLQCKPLKYKVVRDPPLQMDVASILHLNRKFVDMDLNLGSVYQYWVITISGTEESEPSPAVTYIHGSGYCGDGIIQKDQGEQCDDMNKINGDGCSLFCRQEVSFNCIDEPSRCYFHDGDGVCEEFEQKTSIKDCGVYTPQGFLDQWASNASVSHQDQQCPGWVIIGQPAASQVCRTKVIDLSEGISQHAWYPCTISYPYSQLAQTTFWLRAYFSQPMVAAAVIVHLVTDGTYYGDQKQETISVQLLDTKDQSHDLGLHVLSCRNNPLIIPVVHDLSQPFYHSQAVRVSFSSPLVAISGVALRSFDNFDPVTLSSCQRGETYSPAEQSCVHFACEKTDCPELAVENASLNCSSSDRYHGAQCTVSCRTGYVLQIRRDDELIKSQTGPSVTVTCTEGKWNKQVACEPVDCSIPDHHQVYAASFSCPEGTTFGSQCSFQCRHPAQLKGNNSLLTCMEDGLWSFPEALCELMCLAPPPVPNADLQTARCRENKHKVGSFCKYKCKPGYHVPGSSRKSKKRAFKTQCTQDGSWQEGACVPVTCDPPPPKFHGLYQCTNGFQFNSECRIKCEDSDASQGLGSNVIHCRKDGTWNGSFHVCQEMQGQCSVPNELNSNLKLQCPDGYAIGSECATSCLDHNSESIILPMNVTVRDIPHWLNPTRVERVVCTAGLKWYPHPALIHCVKGCEPFMGDNYCDAINNRAFCNYDGGDCCTSTVKTKKVTPFPMSCDLQGDCACRDPQAQEHSRKDLRGYSHG
modifications: glycosylation sites assigned in the density (positions not given)
notes: pregnancy-associated plasma protein A, human, full-length mature PAPP-A, Arg1-Gly1547; numbers count on: the mature protein; source: purified from pregnant human plasma as the PAPP-A·proMBP complex (PEG6000, SOURCE-15Q, MonoS, Superose-6)

Experiments:
[1] = biological target: the molecule itself; experiment: cryo-EM structure; PAPP-A·proMBP complex purified from pregnant human plasma, 0.2 mg/mL, in PBS pH 7.4; 2:2 map with C2 symmetry and half map after symmetry expansion
[2] = biological target: B1; experiment: as above; conditions: both partners purified
[3] = biological target: purified recombinant PAPP-A free of STC2 (apo PAPP-A) (human, UniProt Q13219 82-1627, fluorescently labeled with Protein Labeling Kit RED-NHS (in MST)); experiment: MST; RED-NHS labeled PAPP-A (24 nM, mixed with an equal volume of ligand), ligand serially diluted; PBS with 0.05% Tween-20, room temperature, 30 min; 1:1 binding mode; n = 3; conditions: both partners purified

Binder: B1
- stoichiometry N [1]: 2

- binding result [2]: binds
B2: proform of eosinophil major basic protein (proMBP), endogenous, from pregnant human plasma (natural protein, human (endogenous in pregnant plasma), UniProt P13727 17-222, looked up)
chain: LHLRSETSTFETPLGAKTLPEDEETPEQEMEETPCRELEEEEEWGSGSEDASKKDGAVESISVPDMVDKNLTCPEEEDTVKVVGIPGCQTCRYLLVRSLQTFSQAWFTCRRCYRGNLVSIHNFNINYRIQCSVSALNQGQVWIGGRITGSGRCRRFQWVDGSRWNFAYWAAHQPWSRGGHCVALCTRGGHWRRAHCLRRLPFICSY
notes: proform of eosinophil major basic protein, human, encoded by PRG2; only residues 88-222 traced in the map, residues 1-87 invisible; Secreted proform; the signal peptide should be absent (surmise); Model built on PDB 1H8U; also called PM; PRG2; source: purified from pregnant human plasma as the PAPP-A·proMBP complex (PEG6000, SOURCE-15Q, MonoS, Superose-6)

- Kd [3]: ~6.15 µM
B3: recombinant proMBP (modulator protein) (natural protein, UniProt P13727 17-222, looked up)
chain: LHLRSETSTFETPLGAKTLPEDEETPEQEMEETPCRELEEEEEWGSGSEDASKKDGAVESISVPDMVDKNLTCPEEEDTVKVVGIPGCQTCRYLLVRSLQTFSQAWFTCRRCYRGNLVSIHNFNINYRIQCSVSALNQGQVWIGGRITGSGRCRRFQWVDGSRWNFAYWAAHQPWSRGGHCVALCTRGGHWRRAHCLRRLPFICSY
notes: proform of eosinophil major basic protein, encoded by PRG2; construct not described; source: co-expressed with PAPP-A for the cleavage assay
